Biological target: N237_S47D with C-terminal human Fc tag
Test: BLI

Nipah virus attachment glycoprotein G receptor-binding domain (from UniProt Q9IH62 176-602) (domain or fragment)
Kd: 3.8 nM
